Patent US20040019918

Target: GST-MKK4 fusion protein (available from Upstate Biotechnologies, Inc)

B1: His-tagged hMEKK2 (polyhistidine-hMEKK2 fusion) (protein)
chain: HHHHHHMDDQQALNSIMQDLAVLHKASRPALSLQETRKAKSSSPKKQNDVRVKFEHRGEKRILQFPRPVKLEDLRSKAKIAFGQSMDLHYTNNELVIPLTTQDDLDKAVELLDRSIHMKSLKILLVINGSTQATNLEPLPSLEDLDNTVFGAERKKRLSIIGPTSRDRSSPPPGYIPDELHQVARNGSFTSINSEGEFIPESMDQMLDPLSLSSPENSGSGSCPSLDSPLDGESYPKSRMPRAQSYPDNHQEFSDYDNPIFEKFGKGGTYPRRYHVSYHHQEYNDGRKTFPRARRTQGTSLRSPVSFSPTDHSLSTSSGSSIFTPEYDDSRIRRRGSDIDNPTLTVMDISPPSRSPRAPTNWRLGKLLGQGAFGRVYLCYDVDTGRELAVKQVQFDPDSPETSKEVNALECEIQLLKNLLHERIVQYYGCLRDPQEKTLSIFMEYMPGGSIKDQLKAYGALTENVTRKYTRQILEGVHYLHSNMIVHRDIKGANILRDSTGNVKLGDFGASKRLQTICLSGTGMKSVTGTPYWMSPEVISGEGYGRKADIWSVACTVVEMLTEKPPWAEFEAMAAIFKIATQPTNPKLPPHVSDYTRDFLKRIFVEAKLRPSADELLRHMFVHYH
  phosphorylation of GST-MKK4 (32P incorporation from [gamma-32P]-ATP, SDS-PAGE, imaging): comparable to the activity of purified mouse MEKK2, and significantly above the background levels seen with control extracts

B2: purified mouse MEKK2 (protein)
chain: MDDQQALNSIMQDLAVLHKASRPALSLQETRKAKPSSPKKQNDVRVKFEHRGEKRILQVTRPVKLEDLRSKSKIAFGQSMDLHYTNNELVIPLTTQDDLDKAVELLDRSIHMKSLKILLVVNGSTQATNLEPSPSPEDLNNTPLGAERKKRLSVVGPPNRDRSSPPPGYIPDILHQIARNGSFTSINSEGEFIPESMDQMLDPLSLSSPENSGSGSCPSLDSPLDGESYPKSRMPRAQSYPDNHQEFTDYDNPIFEKFGKGGTYPRRYHVSYHHQEYNDGRKTFPRARRTQGTSFRSPVSFSPTDHSLSTSSGSSVFTPEYDDSRIRRRGSDIDNPTLTVTDISPPSRSPRAPTNWRLGKLLGQGAFGRVYLCYDVDTGRELAVKQVQFNPESPETSKEVNALECEIQLLKNLLHERIVQYYGCLRDPQEKTLSIFMELSPGGSIKDQLKAYGALTENVTRKYTRQILEGVHYLHSNMIVHRDIKGANILRDSTGNIKLGDFGASKRLQTICLSGTGMKSVTGTPYWMSPEVISGEGYGRKADIWSVACTVVEMLTEKPPWAEFEAMAAIFKIATQPTNPKLPPHVSDYTRDFLKRIFVEAKLRPSAEELLRHMFVHYH
  phosphorylation of GST-MKK4 (32P incorporation from [gamma-32P]-ATP, SDS-PAGE, imaging): comparable to the activity of purified mouse MEKK2
